{"source": "patent US11672846B2", "about": "“Soluble bacterial and fungal proteins and methods and uses thereof in inhibiting and dispersing biofilm” (priority 2014, dated 2023)", "key": {"A. fumigatus GAG biofilm": {"system": "A. fumigatus GAG biofilm", "experiment": "Inhibition of GAG-dependent A. fumigatus biofilm formation (crystal violet)", "assay_type": "cell-based"}, "[1]": {"system": "pre-formed A. fumigatus GAG biofilms", "assay_type": "cell-based", "settings": "crystal violet"}, "[2]": {"system": "Pel biofilms of P. aeruginosa PAO1 ΔwspFΔpslpBADpel", "experiment": "Dispersal of pre-formed Pel biofilms (crystal violet)", "quoted_text": "The methodology to generate pre-formed Pel biofilms is identical to that of Psl biofilms, described in Example 4 with the exception that the strain used is P. aeruginosa PAO1 ΔwspFΔpslpBADpel."}, "[3]": {"system": "P. aeruginosa PAO1 ΔwspFΔpslpBADpel", "experiment": "Inhibition of Pel biofilm formation in static culture (crystal violet)", "settings": "read-out: EC50 of Pel biofilm inhibition; static PAO1ΔwspFΔpslPBADpel culture"}, "Trichosporon asahii": {"system": "Trichosporon asahii", "experiment": "SBA-FITC lectin staining of Trichosporon asahii after hydrolase treatment", "assay_type": "cell-based", "settings": "0.5 μM, 3 h", "description": "To assess the effects of hydrolase treatment on Trichosporon asahii, 1×10^5 T. asahii yeast cells or A. fumigatus conidia were inoculated in Dulbecco's Modified Eagle Medium (DMEM), and grown for 10 h at 37° C., 5% CO2 on glass coverslips. Wells were gently washed once with Ham's F-12K (Kaighn's) Medium (F12K) media, and Sph3AC(54-304) was added at a final concentration of 0.5 μM in F12K, and incubated for an additional 3 h at 37° C., 5% CO2. Young hyphae were washed twice with PBS, and stained with FITC tagged SBA for 1 h. The stained samples were washed with PBS and fixed with 4% PFA for 15 min. Slides were then mounted, sealed, and imaged under confocal microscopy with a 488 nm laser (Zeiss)."}, "[4]": {"system": "RFP-expressing Af293 hyphae", "experiment": "Uptake of Bodipy-conjugated posaconazole by hyphae (confocal microscopy)", "assay_type": "cell-based, A. fumigatus", "settings": "0.5 μM pretreatment 90 min", "description": "Red Fluorescent Protein (RFP)-expressing Af293 hyphae were pretreated with 0.5 μM Sph3AC(54-304) hydrolase for 90 min before treatment with Bodipy-conjugated posaconazole (BDP-PCZ). At various time points, samples were fixed and imaged using fluorescent confocal microscopy to determine the kinetics of drug penetration of hyphae."}, "[5]": {"system": "Botrytis cinerea isolate 7b1", "experiment": "Lectin staining of Botrytis cinerea hyphae after hydrolase treatment", "assay_type": "cell-based", "settings": "1 μM", "description": "Botrytis cinerea isolate 7b1 was inoculated at a concentration of 6×10^3 conidia/ml in 500 μl of Brian media on poly-D-lysine-coated coverslips (Corning, Bedford, Mass.) for 17 h at room temperature, in the dark. Samples were incubated either in the presence or absence of 1 μM Sph3AC(54-304). Media was then removed and the hyphae were incubated in PBS with or without 1 μM Sph3AC(54-304) for 1 h at room temperature. Samples were washed twice with PBS, and stained with 30 μg/mL of Wisteria fluoribunda (WFL) lectin conjugated to fluoresceine for 2 h at 4° C. Samples were washed twice with PBS, and fixed with 4% paraformaldehyde for 10 min at 4° C. Samples were washed once and stained with a 1:1000 dilution of DRAQ5™ (eBioscience, San Diego, Calif.) for 5 min at room temperature. Samples were washed once with PBS, mounted onto microscope slides using SlowFade® Gold antifade reagent (life Technologies™, Eugene, Oreg.), and sealed with nail polish. Images were acquired on an Olympus Fluoview confocal laser microscope using 488 and 633 nm lasers coupled with BA505-525 and BA650IF filters, respectively. Z-stacks of 0.2 μm increments were acquired, and 3D-rendered using ImageJ software (National Institutes of Health)."}, "[6]": {"system": "A549 pulmonary epithelial cell line injured by A. fumigatus", "experiment": "Chromium release epithelial cell damage assay", "settings": "recombinant Sph3 hydrolases, up to 24 h", "protocol": "The immortalized airway epithelial cell line A549 was loaded with chromium-51 by incubating monolayers grown in 24-well tissue culture plates with 3 mCi of ^51Cr at 37° C. in 5% CO2 for 24 h. Excess chromium was removed by washing with Hank's Balanced Salt Solution (HBSS). […] For testing germ tubes, conidia were grown for 7 h in SAB media at 37° C., then the fungus was collected and resuspended in DF12K media before 0.5 μM of hydrolase was added. The germ tubes were incubated with hydrolase for 1 h before being added to the A549 cells. After 16, 20 and 24 h of co-incubation, an aliquot of the medium above the cells was retrieved and replaced with fresh media. The cells were then lysed with 6 N NaOH and the lysate collected. The ^51Cr content of the medium and lysates was then measured in a gamma counter and the extent of epithelial cell damage was calculated as a function of the degree of ^51Cr release. Each strain was tested in triplicate, and all results were corrected for spontaneous chromium release by uninfected epithelial cells.\nThe methodology for prevention of epithelial cell damage caused by A. fumigatus using Sph352-298 is identical to that previously described in Example 19 for the use PelA47-303."}, "A. fumigatus": {"system": "A. fumigatus", "experiment": "Ega3 inhibition of A. fumigatus biofilm formation (crystal violet, imaged)", "assay_type": "cell-based", "settings": "1 μM, 18 h", "description": "A. fumigatus conidia were inoculated into polystyrene, round-bottom 24-well plates at a concentration of 10^5 conidia/well in DMEM media. To assess the inhibition of biofilm formation, Ega346-318 was added at a final concentration of 1 μM and the conidia incubated for 18 h at 37° C., 5% CO2. The resulting biofilms were then gently washed twice with distilled water, and stained with 0.1% crystal violet for 10 min. Samples were washed twice with water and the wells were imaged."}, "[7]": {"system": "preformed A. fumigatus biofilm", "experiment": "Ega3 disruption of preformed A. fumigatus biofilm", "assay_type": "cell-based", "settings": "1 μM, 1.5 h, room temperature", "description": "To determine the effect hydrolase has on a preformed biofilm, 10^5 A. fumigatus conidia were inoculated per well in DMEM media as above, but in the absence of hydrolase. Following 18 h incubation at 37° C., 5% CO2, the resulting biofilm was treated with Ega346-318 at a final concentration of 1 μM for 1.5 h at room temperature on a nutator. The biofilms were then washed and stained as mentioned above."}, "A. fumigatus hyphae": {"system": "A. fumigatus hyphae", "experiment": "SBA-FITC lectin staining of A. fumigatus hyphae after Ega3 treatment", "assay_type": "cell-based", "settings": "0.5 μM, 3 h"}, "[8]": {"experiment": "Reducing sugar assay on dPNAG", "assay_type": "biochemical, S. aureus", "description": "Isolated dPNAG from S. aureus strain MN8m was solubilized in 6 N HCl at ˜10 mg/mL. 10 N NaOH was used to titrate the re-suspension until neutrality was reached, ˜pH 7-8. In a 50 μL reaction, 1 μM BpsB318-670 was incubated with 1-5 mg/mL of dPNAG in 100 mM HEPES pH 7.0 for 18 hours. The sample was split into two 20 μL aliquots and treated with DTT/3-Methyl-2-benzothiazolinone hydrazone hydrochloride hydrate and heated at 80° C. for 15 minutes. A solution of 0.5% (w/w) iron (III) ammonium sulfate dodecahydrate, 0.5% (w/w) sulfamic acid, and 0.25 N hydrochloric acid was added, mixed, and cooled to room temperature. […] Protein and dPNAG in buffer H were used as background controls."}, "[9]": {"system": "PNAG-overproducing E. coli biofilms", "experiment": "Dispersal of pre-formed PNAG-dependent E. coli biofilms", "settings": "read-out: EC50 of degradation of pre-formed E. coli biofilm; 60 min, average starting OD595 of 0.5", "protocol": "Bacterial cultures expressing Psl were inoculated as stated above and were grown at 37° C. overnight with shaking at 200 rpm. All cultures were diluted in 1:100 in LB and arabinose was added to a final concentration of 0.5% (w/v) to induce Psl biosynthesis. Media containing the Psl-producing cultures were supplemented with 200 μg/mL ampicillin and 100 μg/mL kanamycin. The cultures were incubated statically for 24 h at 26° C. to allow for biofilm formation. After incubation non-adherent cells and media were removed by washing the plate with deionized water three times. The wells were filled with 95 μL of 100 mM sodium HEPES buffer pH 7.0 followed by 5 μL of varying concentrations of each hydrolytic enzyme (2 nM-5 μM). Reactions were allowed to proceed for up to 60 min at 25° C. on a rotating nutator at which time, the reaction was quenched by washing the plates with deionized water. The wells were stained with 200 μL of 0.1% (w/v) crystal violet for 10 min, and washed with water three times. Crystal violet dye from Psi cultures was solubilized in 100 μL of 95% ethanol for 10 min with rotation, after which time the absorbance was measured at 595 nm using a SpectraMax M2 from Molecular Devices (Sunnyvale, Calif.). The amount of biofilm is proportional to the absorbance from staining with crystal violet (Merritt et al 2005). All reactions were completed in at least triplicate and 100 mM sodium HEPES buffer pH 7.0 was used as an untreated control. The addition of 2.5 mg/mL kanamycin to culture prior to biofilm formation was used as a positive control as no cell growth occurs.\nPNAG-overproducing E. coli was grown at 37° C. overnight in LB broth supplement with 200 ug/mL ampicillin and 100 ug/mL kanamycin with shaking at 200 rpm. An E. coli μgaABCD knockout strain was used as a non-biofilm forming control for background straining."}, "S. carnosus": {"system": "S. carnosus", "experiment": "Inhibition of PNAG-dependent S. carnosus biofilm formation", "settings": "5 μM, preliminary testing", "protocol": "In brief, PNAG-overproducing E. coli or S. carnosus was grown at 37° C. overnight in LB broth supplement with 200 μg/mL ampicillin and 100 μg/mL kanamycin, and 10 μg/mL tetracycline, respectively, with shaking at 200 rpm. Fresh cultures with antibiotic were prepared from the overnight culture using a 1:100 dilution, using LB broth for E. coli, and tryptic soy broth for S. carnosus. 95 μL of diluted culture was added to a sterile 96-well polystyrene round bottom microtiter plate and varying concentrations of protein (2 nM-5 μM) were added in 5 μL aliquots to give a final volume of 100 μL. The cultures were incubated statically for 24 h at 26° C. for E. coli, and 37° C. for S. carnosus, to allow for biofilm formation. To eliminate edge-effects, ˜200 μL of sterile water was placed in all outside wells and the plate was sealed with parafilm. After incubation non-adherent cells and media were removed by washing the plate with deionized water three times. The wells were stained with 150 μL of 0.1% (w/v) crystal violet for 10 min, and washed with water three times. The remaining dye was solubilized with 100 μL of 33% (v/v) acetic acid for 10 min with rotation, after which time the absorbance was measured at 595 nm using a SpectraMax M2 from Molecular Devices (Sunnyvale, Calif.). […] All reactions were completed in at least triplicates and buffer G was used as an untreated control. […]"}, "[10]": {"system": "PNAG-overproducing E. coli", "experiment": "Inhibition of PNAG-dependent E. coli biofilm formation (crystal violet)", "settings": "read-out: EC50 of E. coli biofilm formation prevention, static 24 h at 26° C.", "protocol": "In brief, PNAG-overproducing E. coli or S. carnosus was grown at 37° C. overnight in LB broth supplement with 200 μg/mL ampicillin and 100 μg/mL kanamycin, and 10 μg/mL tetracycline, respectively, with shaking at 200 rpm. Fresh cultures with antibiotic were prepared from the overnight culture using a 1:100 dilution, using LB broth for E. coli, and tryptic soy broth for S. carnosus. 95 μL of diluted culture was added to a sterile 96-well polystyrene round bottom microtiter plate and varying concentrations of protein (2 nM-5 μM) were added in 5 μL aliquots to give a final volume of 100 μL. The cultures were incubated statically for 24 h at 26° C. for E. coli, and 37° C. for S. carnosus, to allow for biofilm formation. To eliminate edge-effects, ˜200 μL of sterile water was placed in all outside wells and the plate was sealed with parafilm. After incubation non-adherent cells and media were removed by washing the plate with deionized water three times. The wells were stained with 150 μL of 0.1% (w/v) crystal violet for 10 min, and washed with water three times. The remaining dye was solubilized with 100 μL of 33% (v/v) acetic acid for 10 min with rotation, after which time the absorbance was measured at 595 nm using a SpectraMax M2 from Molecular Devices (Sunnyvale, Calif.). […] All reactions were completed in at least triplicates and buffer G was used as an untreated control. Either an E. coli pgaABCD knockout strain (DPGA) or S. carnosus treated with gentamycin, was used as a control for background straining."}}, "note": "Entries after “also recorded” stand apart in the source; their conditions may differ. Read-outs that look alike come from different tables or passages of the source."}
{"molecule": "PelA35-291: PelA residues 35-291 from P. protogens Pf-5, SEQ ID NO: 13 (protein, listed as Pseudomonas protogens) AAPASVGFWYAEQPPLQELAQFEWAVVEPGHMASADVATLRKLGSQPFAYLSVGEFDGNRAALAKQALAQGASPVRNKAWDSQVMDIATPAWREHLFKRAKALQDQGYAGLFLDTLDSFQLLPEADREPQRKALASFLRELHSRLPNLKLFFNRGFEVLGELDGVASAVAVESIHAGWDASAKRYRPVSEADRTWLEGELKPLRARNIPLVAIDYLPANRREEARKLVRQLSQEGFIPVVTTPDLNALSMSTVEVQP", "values": [{"measurement": "prevention of GAG biofilm formation (in words)", "setting": "A. fumigatus GAG biofilm; 20 h in Brian media, crystal violet, listed as P. protogens PelA35-291", "value": "shown to prevent GAG-dependent biofilm formation"}, {"measurement": "dispersal of pre-formed GAG biofilm (in words)", "setting": "[1]", "value": "elimination of the GAG biofilm"}, {"measurement": "dispersal of pre-formed GAG biofilm (in words)", "setting": "[1]; listed as P. protogens PelA35-291", "value": "elimination of the GAG biofilms"}, {"measurement": "time to disperse pre-formed Pel biofilm", "setting": "[2]; 1 μM enzyme", "value": 30, "unit": "min"}, {"measurement": "dispersal of pre-formed Pel biofilm (in words)", "setting": "[2]; 10-fold dilution of 1 μM, 1 h", "value": "disperse nearly all the biofilm"}, {"measurement": "EC50", "setting": "[3]", "value": "69.3 ± 1.2", "unit": "nM"}]}
{"molecule": "Sph3AC(54-304): Sph3 ortholog residues 54-304, Aspergillus clavatus NRRL 1, SEQ ID NO: 22 (protein, listed as Aspergillus clavatus) MGPKSKVFVPLYVYPAPGAWDPLEDVISKHPDVNFTVVINPGSGPGPEALPDGNYTREIPKLASYENVRLLGYVATTYAKRNISEVRRDIETYAAWPTQSSNANLAVRGIFFDETPQQYDADILAYLRELTDVVKGTSGLGPDHYVVHNPGAIPDSRYLSTADSTVVFEATYATFQERHGAELFDTIPDSHRDQLCAVIHSVPTSVEGSDLRGLVKQVRQVADEIFITHLETDYYAGFGGQWSEFVDLMAS", "values": [{"measurement": "inhibition of A. fumigatus biofilm formation by recombinant Sph3 (in words)", "setting": "A. fumigatus GAG biofilm", "value": "inhibit the formation of A. fumigatus biofilms in a dose dependent manner"}, {"measurement": "dispersal of pre-formed GAG biofilm (in words)", "setting": "[1]", "value": "capable of disrupting GAG-dependent biofilms"}, {"measurement": "surface GalNAc exopolysaccharide of T. asahii after treatment", "setting": "Trichosporon asahii", "value": "complete loss"}, {"measurement": "uptake of fluorescent-tagged posaconazole by hyphae", "setting": "[4]", "value": "increases the activity of antifungals; also recorded: increased the speed and degree of uptake"}, {"measurement": "GAG exopolysaccharide on B. cinerea hyphae after treatment", "setting": "[5]", "value": "complete loss of this exopolysaccharide"}, {"measurement": "epithelial cell damage by A. fumigatus, chromium release", "setting": "[6]", "value": "completely protected epithelial cells from damage by A. fumigatus for 24 h"}, {"measurement": "epithelial cell damage by A. fumigatus, chromium release", "setting": "[6]; listed as Sph3 from A. clavatus", "value": "reduced fungal damage to epithelial cells"}]}
{"molecule": "Ega346-318: soluble Ega3 residues 46-318, Aspergillus fumigatus Af293, SEQ ID NO: 21 (protein, listed as Aspergillus fumigatus) GLGGGGGGEGEEGSGGETTPPEGNYTTAKWQPAVGTKWQIELLYALNDTSVDAEIYDIDLFINDKSTIAGLQRAGRKVICYFSAGSYENWRPDKDKFKDSDLGHDLDDWPGEKWLNISSANVRQIMLDRLDMARDKGCDGVDPDNVDGYDNDNGLDLTQADSISFVNFLANAAHARNMSIGLKNAGDIIPSVIKNMQWSVNEQCAQYNECDTYAVFPQNGKPVFHIEYPKGDKTNNDLSVTASQKNAACDFAGSANFSTVIKNMNLNNWVEYC", "values": [{"measurement": "A. fumigatus biofilm formation / adherence in presence of enzyme", "setting": "A. fumigatus", "value": "prevented biofilm formation; also recorded: completely non-adherent"}, {"measurement": "effect on preformed 18 h A. fumigatus biofilm", "setting": "[7]", "value": "allowed for disruption of the biofilm"}, {"measurement": "detectable GalNAc on hyphal surface after treatment", "setting": "A. fumigatus hyphae", "value": "complete loss of detectable"}]}
{"molecule": "BpsB318-670: BpsB C-terminal hydrolase domain residues 318-670, SEQ ID NO: 19 (protein, listed as Bordetella bronchiseptica) PIERIVQVDLDYIYDPDPEQQNRNLGQLIDRMKDLAPSAVYLQAFADPKGDGDITEVYFPNRHLPMRADLFNRVAWQLKTRAGVMVYAWLPVLTFSVPPGNPAYGKVVQSTTRKPGERGLGSPTRLSPFHPDAHRVISEIYEDLAKAAHFDGLLFHDDAVLDDTEDSSPEALATYQGWGLPPDIAAIRADPKLAQQWSKGKIRYLIDFTMHLRHIVSGYQNDRDMVVARNLYAQPVLDPVSEAWYGQSLPEFLKSYDFVALMAMPNMEGAARPEQWMRQLVAAVARQKGLDRTIFELQARDWRVGKPIDTEILRRQMVQLRSLGAINYGYYPDDFIANHPDAEALRDVMSLKS", "values": [{"measurement": "dPNAG hydrolysis (in words)", "setting": "[8]", "value": "hydrolyze dPNAG"}, {"measurement": "EC50", "setting": "[9]", "value": "~90", "unit": "nM"}, {"measurement": "inhibition of S. carnosus biofilm formation (in words)", "setting": "S. carnosus", "value": "can inhibit biofilm formation"}, {"measurement": "EC50", "setting": "[10]", "value": "~60", "unit": "nM"}]}
